In US20240132578A1:

Columns and labels:
Assay in all cases: cell-based or functional assay
[1] = target: HIV-1 Env of isolate 92RW020 (clade A pseudovirus) (HIV-1)
[2] = target: HIV-1 Env of pseudovirus MGRM-G-024 (HIV-1)
[3] = target: HIV-1 Env of isolate MGRM-A-009 (clade A pseudovirus) (HIV-1)
[4] = target: HIV-1 envelope glycoprotein (Env) of isolate MGRM-C-025 (HIV-1)
[5] = target: HIV-1 92RW020 envelope (Env) on pseudovirus (HIV-1)
[6] = target: HIV-1 Env of pseudovirus MGRM-G-027 (HIV-1)
[7] = target: HIV-1 Env of isolate 92UG031 (clade A pseudovirus) (HIV-1)
[8] = target: HIV-1 Env of isolate JRCSF (Clade B) (HIV-1) (UniProt P20871)
[9] = target: HIV-1 Env of pseudovirus MGRM-F1-006 (clade F) (HIV-1)
[10] = target: HIV-1 envelope glycoprotein (Env) of isolate MGRM-C-008 (HIV-1)
[11] = target: HIV-1 Env of isolate MGRM-D-001 (clade D pseudovirus) (HIV-1)
[12] = target: HIV-1 MGRM-AE-002 Env (pseudovirus) (HIV-1)
[13] = target: HIV-1 Env of isolate MGRM-A-014 (clade A pseudovirus) (HIV-1)
[14] = target: HIV-1 Env of isolate MGRM-A-007 (clade A pseudovirus) (HIV-1)
[15] = target: HIV-1 MGRM-AG-001 Env (pseudovirus) (HIV-1)
[16] = target: HIV-1 Env of isolate MGRM-A-004 (clade A pseudovirus) (HIV-1)
[17] = target: HIV-1 Env of pseudovirus MGRM-F1-017 (clade F) (HIV-1)
[18] = target: HIV-1 MGRM-AG-009 Env (pseudovirus) (HIV-1)
[19] = target: HIV-1 envelope glycoprotein (Env) of isolate MGRM-AE-008 (HIV-1)
[20] = target: HIV-1 Env of pseudovirus MGRM-D-028 (HIV-1)
[21] = target: HIV-1 envelope glycoprotein (Env) of isolate MG RM-AG-012 (HIV-1)
[22] = target: HIV-1 Env of pseudovirus MGRM-F1-017 (HIV-1)
[23] = target: HIV-1 envelope glycoprotein (Env) of isolate MG RM-AG-013 (HIV-1)
[24] = target: HIV-1 Env of isolate MGRM-C-024 (subtype C), on pseudovirus (HIV-1)
[25] = target: HIV-1 Env of isolate MGRM-G-016 (subtype G) (HIV-1)
[26] = target: HIV-1 Env of pseudovirus isolate 92BR020 (clade B) (HIV-1)
[27] = target: HIV-1 Env of isolate MGRM-C-014 (subtype C), on pseudovirus (HIV-1)
[28] = target: HIV-1 Env of isolate 98CN006 (HIV-1)
[29] = target: HIV-1 Env of isolate MGRM-AE-001 (pseudovirus) (HIV-1)

1443_C16 (PG16) (TCN-116) (antibody), sequence (VH): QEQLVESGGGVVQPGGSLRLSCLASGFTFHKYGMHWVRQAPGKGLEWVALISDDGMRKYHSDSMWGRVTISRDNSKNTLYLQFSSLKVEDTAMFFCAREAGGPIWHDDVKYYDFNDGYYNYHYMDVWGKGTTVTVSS
1443_C16 (PG16) (TCN-116) (antibody), sequence (VL): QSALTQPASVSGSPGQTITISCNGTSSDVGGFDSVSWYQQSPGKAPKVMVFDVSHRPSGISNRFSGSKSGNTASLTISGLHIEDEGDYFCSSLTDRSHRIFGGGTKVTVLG
PGT-142 (4995_E20) (antibody), sequence (VH): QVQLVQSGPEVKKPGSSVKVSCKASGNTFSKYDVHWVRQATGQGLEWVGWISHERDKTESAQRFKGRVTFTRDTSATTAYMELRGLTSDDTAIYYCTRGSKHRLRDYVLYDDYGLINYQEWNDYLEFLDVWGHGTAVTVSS
PGT-142 (4995_E20) (antibody), sequence (VL): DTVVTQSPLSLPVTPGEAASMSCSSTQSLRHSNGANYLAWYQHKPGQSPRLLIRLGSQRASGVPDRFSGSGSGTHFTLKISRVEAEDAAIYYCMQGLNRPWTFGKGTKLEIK
PGT-143 (4980_N08) (antibody), sequence (VH): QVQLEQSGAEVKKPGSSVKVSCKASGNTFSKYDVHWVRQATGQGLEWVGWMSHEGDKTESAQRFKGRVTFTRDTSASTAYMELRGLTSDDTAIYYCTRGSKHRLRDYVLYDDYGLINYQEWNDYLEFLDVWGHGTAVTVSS
PGT-143 (4980_N08) (antibody), sequence (VL): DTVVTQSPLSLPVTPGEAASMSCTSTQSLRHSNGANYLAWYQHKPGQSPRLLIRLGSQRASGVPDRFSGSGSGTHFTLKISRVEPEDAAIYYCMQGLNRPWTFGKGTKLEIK
PGT-145 (4995_P16) (antibody), sequence (VH): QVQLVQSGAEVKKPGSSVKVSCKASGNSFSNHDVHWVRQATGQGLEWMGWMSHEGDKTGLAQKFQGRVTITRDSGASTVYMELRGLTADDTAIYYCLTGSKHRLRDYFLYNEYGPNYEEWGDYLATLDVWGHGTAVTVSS
PGT-145 (4995_P16) (antibody), sequence (VL): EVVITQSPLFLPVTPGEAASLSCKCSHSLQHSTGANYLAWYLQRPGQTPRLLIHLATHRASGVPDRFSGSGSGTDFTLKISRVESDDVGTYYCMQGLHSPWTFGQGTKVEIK
PGT-144 (4970_K22) (antibody), sequence (VH): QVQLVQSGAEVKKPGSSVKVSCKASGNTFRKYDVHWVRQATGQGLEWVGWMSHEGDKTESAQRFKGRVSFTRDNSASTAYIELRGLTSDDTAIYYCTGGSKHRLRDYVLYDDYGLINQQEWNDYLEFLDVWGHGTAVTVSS
PGT-144 (4970_K22) (antibody), sequence (VL): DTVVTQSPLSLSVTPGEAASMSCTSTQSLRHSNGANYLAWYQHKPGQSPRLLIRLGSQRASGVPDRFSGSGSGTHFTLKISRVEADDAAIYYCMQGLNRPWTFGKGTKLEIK
PGT-141 (4964_G22; 4993_K13) (antibody), sequence (VH): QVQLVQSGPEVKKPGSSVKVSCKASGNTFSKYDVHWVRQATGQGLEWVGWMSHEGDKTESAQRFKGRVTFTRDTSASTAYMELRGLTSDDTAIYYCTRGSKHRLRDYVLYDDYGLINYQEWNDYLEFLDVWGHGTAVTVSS

| Substance | IC50 (µg/ml), pseudovirus neutralization [1] [µg/mL] | IC50 (µg/ml), pseudovirus neutralization [2] [µg/mL] | IC50 (µg/ml), pseudovirus neutralization [3] [µg/mL] | IC50 (µg/ml), pseudovirus neutralization [4] [µg/mL] | neutralization IC50 [5] [µg/mL] | IC50 (µg/ml), pseudovirus neutralization [6] [µg/mL] | IC50 (µg/ml), pseudovirus neutralization [7] [µg/mL] | IC50 [9] [µg/mL] | IC50 (µg/ml), pseudovirus neutralization [10] [µg/mL] | IC50, pseudovirus neutralization [11] [µg/mL] | IC50 (µg/ml), pseudovirus neutralization [12] [µg/mL] | IC50 (µg/ml), pseudovirus neutralization [13] [µg/mL] | IC50 (µg/ml), pseudovirus neutralization [14] [µg/mL] | IC50 (µg/ml), pseudovirus neutralization [15] [µg/mL] | IC50 (µg/ml), pseudovirus neutralization [16] [µg/mL] | IC50 [17] [µg/mL] | IC50 (µg/ml), pseudovirus neutralization [18] [µg/mL] | IC50 [19] [µg/mL] | IC50, pseudovirus neutralization [20] [µg/mL] | IC50 [21] [µg/mL] | further results |
| --- | --- | --- | --- | --- | --- | --- | --- | --- | --- | --- | --- | --- | --- | --- | --- | --- | --- | --- | --- | --- | --- |
| 2F5 (antibody) | 3.36 | 1.07 | 9.4 | > 50 | 3.37 | 0.28 | 3.81 | 1.1 | > 50 | 0.63 | 0.31 | 1.43 | 16.3 | 0.75 | 7.49 | > 50 | 24.8 |  |  |  | IC90 (neutralization of pseudovirus) [8]: 25.3 µg/mL |
| 2G12 (antibody) | 0.48 | > 50 | 7.47 | > 50 | 0.56 | > 50 | > 50 | > 50 | > 50 | > 50 | > 50 | > 50 | > 50 | 0.69 | > 50 | > 50 | > 50 |  |  |  | IC90 (neutralization of pseudovirus) [8]: 5.38 µg/mL |
| 4E10 (antibody) | 4.54 | 1.57 | 12 | 5.58 | 3.38 | 1.19 | 4.94 | 1.01 | 2.97 | 1.84 | 0.55 | 1.74 | 1.82 | 1.12 | 3.14 | 4.92 | 31.4 |  |  |  | IC90 (neutralization of pseudovirus) [8]: 44.1 µg/mL |
| 1443_C16 (PG16) (TCN-116) (antibody) | 0.28 | 0.01 | 0.01 | 0.04 | 0.004 | 0.01 | 0.43 | 0.27 | > 50 | > 50 | 0.01 | 20.3 | 5.91 | 0.03 | 0.04 | > 50 | > 50 |  |  |  | IC90 (neutralization of pseudovirus) [8]: 0.013 µg/mL |
| 1495_C14 (PGC14) (antibody) | 46 | > 50 | > 50 | > 50 | 28.6 | > 50 | > 50 | > 50 | > 50 | > 50 | > 50 | > 50 | > 50 | > 50 | > 50 | > 50 | > 50 |  |  |  |  |
| PGT-141 (4964_G22; 4993_K13) (antibody) |  |  |  |  |  |  |  |  |  |  |  |  |  |  |  |  |  | 0.101 | < 50 | > 50 | IC50, pseudovirus neutralization [22]: 30.8 µg/mL; IC50 [23]: > 50 µg/mL |
| PGT-142 (4995_E20) (antibody) |  |  |  |  |  |  |  |  |  |  |  |  |  |  |  |  |  | 0.08 | > 50 | > 50 | IC50, pseudovirus neutralization [22]: 23.5 µg/mL; IC50 [23]: 21.7 µg/mL |
| PGT-143 (4980_N08) (antibody) |  |  |  |  |  |  |  |  |  |  |  |  |  |  |  |  |  | 0.135 | > 50 | > 50 | IC50, pseudovirus neutralization [22]: 26.3 µg/mL; IC50 [23]: > 50 µg/mL |
| PGT-144 (4970_K22) (antibody) |  |  |  |  |  |  |  |  |  |  |  |  |  |  |  |  |  | 3.55 | > 50 | > 50 | IC50, pseudovirus neutralization [22]: > 50 µg/mL; IC50 [23]: > 40 µg/mL |
| PGT-145 (4995_P16) (antibody) |  |  |  |  |  |  |  |  |  |  |  |  |  |  |  |  |  | 1.46 | 0.721 | > 50 | IC50, pseudovirus neutralization [22]: 0.286 µg/mL; IC50 [23]: 14.4 µg/mL |
| VRC01 (antibody) |  |  |  |  |  |  |  |  |  |  |  |  |  |  |  |  |  | 1.72 | 0.377 | 0.031 | IC50, single-round pseudovirus neutralization [24]: 3.4 µg/mL; IC50 (µg/mL), pseudovirus neutralization [25]: 0.063 µg/mL; IC50, pseudovirus neutralization [26]: 0.29 µg/mL; IC50, single-round pseudovirus neutralization [27]: > 50 µg/mL; IC50 (µg/mL), pseudovirus neutralization [28]: 0.644 µg/mL; IC50 (µg/mL), single-round pseudovirus neutralization [29]: 0.167 µg/mL; IC50, pseudovirus neutralization [22]: 1.08 µg/mL; IC50 [23]: 0.197 µg/mL |
| b12 (antibody) | > 50 | 2.38 | 4.34 | > 50 | > 50 | > 50 | > 50 | > 50 | 1.51 | > 50 | 17.1 | > 50 | > 50 | 11.9 | > 50 | > 50 | > 50 |  |  |  | IC90 (neutralization of pseudovirus) [8]: 1.17 µg/mL |
